Test results as given in patent publication US20050282739A1.
Values belong to the binder of their own block, whether it stands above or below them. Square brackets hold non-standard residues; d marks the D form. Ends that are not written are not given here. Nle = CCCC[C@H](N)C(=O)O

Tests used:
[1] = molecular target: human melanocortin-3 receptor (hMC3-R) (human) (UniProt P41968); assay: 125I-NDP-α-MSH competition, hMC3-R membranes
[2] = molecular target: human melanocortin-5 receptor (hMC5-R) (human) (UniProt P33032); assay: 125I-NDP-α-MSH competition, hMC5-R membranes
human melanocortin-5 receptor (hMC5-R) (human), sequence (P33032 whole entry): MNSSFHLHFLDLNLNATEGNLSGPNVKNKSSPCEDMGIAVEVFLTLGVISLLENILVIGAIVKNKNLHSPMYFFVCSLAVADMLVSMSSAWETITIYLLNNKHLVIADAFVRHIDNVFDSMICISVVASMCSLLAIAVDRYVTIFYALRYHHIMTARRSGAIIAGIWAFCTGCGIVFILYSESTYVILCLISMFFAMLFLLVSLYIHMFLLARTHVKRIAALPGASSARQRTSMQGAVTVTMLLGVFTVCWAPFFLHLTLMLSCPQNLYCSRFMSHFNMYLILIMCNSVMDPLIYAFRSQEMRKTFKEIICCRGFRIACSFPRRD

[3] = molecular target: human melanocortin-4 receptor (hMC4-R) (human) (UniProt P32245); assay: 125I-NDP-α-MSH competition, hMC4-R membranes
human melanocortin-4 receptor (hMC4-R) (human), sequence (P32245 whole entry): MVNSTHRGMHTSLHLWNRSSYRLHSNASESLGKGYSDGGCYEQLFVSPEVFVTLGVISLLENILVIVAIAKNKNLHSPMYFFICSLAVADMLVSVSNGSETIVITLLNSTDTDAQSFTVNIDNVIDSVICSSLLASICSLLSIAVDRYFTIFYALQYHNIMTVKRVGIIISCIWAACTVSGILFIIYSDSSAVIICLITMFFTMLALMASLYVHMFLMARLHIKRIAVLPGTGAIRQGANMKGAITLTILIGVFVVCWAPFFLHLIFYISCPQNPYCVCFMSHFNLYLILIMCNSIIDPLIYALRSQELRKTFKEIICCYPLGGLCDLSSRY

[4] = molecular target: melanocortin-1 receptor (MC1-R) of B-16 mouse melanoma cells (mouse) (UniProt Q01727); assay: 125I-NDP-α-MSH competition, B-16 membranes
melanocortin-1 receptor (MC1-R) of B-16 mouse melanoma cells (mouse), sequence (Q01727 whole entry): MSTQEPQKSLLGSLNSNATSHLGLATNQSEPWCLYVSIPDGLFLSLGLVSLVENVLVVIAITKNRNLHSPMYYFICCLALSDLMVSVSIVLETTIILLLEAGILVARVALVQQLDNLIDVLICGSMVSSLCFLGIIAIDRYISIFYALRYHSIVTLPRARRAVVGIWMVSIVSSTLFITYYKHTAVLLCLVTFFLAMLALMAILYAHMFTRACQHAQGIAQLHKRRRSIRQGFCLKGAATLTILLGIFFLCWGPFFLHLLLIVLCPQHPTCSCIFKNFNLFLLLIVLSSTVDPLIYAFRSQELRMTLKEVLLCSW

human melanocortin-3 receptor (hMC3-R) (human), sequence (P41968 whole entry): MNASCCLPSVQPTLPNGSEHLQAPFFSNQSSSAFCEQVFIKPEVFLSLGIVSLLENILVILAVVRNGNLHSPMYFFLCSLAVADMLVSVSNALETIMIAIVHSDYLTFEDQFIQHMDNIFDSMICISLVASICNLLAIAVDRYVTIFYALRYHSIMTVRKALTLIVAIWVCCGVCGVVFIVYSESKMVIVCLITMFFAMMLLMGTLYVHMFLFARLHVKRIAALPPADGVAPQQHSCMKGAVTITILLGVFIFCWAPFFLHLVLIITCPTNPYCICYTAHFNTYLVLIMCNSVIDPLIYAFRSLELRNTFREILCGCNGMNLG

% Inhibition at 1 µM [1]: 5%
Binder: Ac-SYS[dC][Nle]EHFRWGKPV-NH2 (also: oxorhenium(V) N3S1 chelate at D-Cys4) [metallopeptide 2-11]

% Inhibition at 1 µM [3]: 4%
% Inhibition at 1 µM [4]: 4%
B1: metallopeptide 4-7 (peptide)
peptide: YV[Nle]GHCFRWDRF-NH2
modifications: also: oxorhenium(V) N3S1 chelate: C6 SG + backbone N of G4, H5, C6, bridge at 6 via Re(V)=O, other end not in the chain

% Inhibition at 1 µM [3]: 4%
% Inhibition at 1 µM [4]: 1%
B2: metallopeptide 4-9 (peptide)
peptide: YV[Nle]CGHFRWDRF-NH2
modifications: also: oxorhenium(V) N3S1 chelate: C4 SG + backbone N of V2, X3, C4, bridge at 4 via Re(V)=O, other end not in the chain

The next lines start with the binder.

Binder: Ac-SYS[Nle]EHFRWGCKPV-NH2 (also: oxorhenium(V) N3S1 chelate at Cys11) [metallopeptide 1-4]
% Inhibition at 1 µM [2]: 6%

Binder: Ac-SYS[Nle]EHFRWGKGCV-NH2 (also: oxorhenium(V) N3S1 chelate at Cys13) [metallopeptide 1-2]
% Inhibition at 1 µM [1]: 6%
